{"source": "paper PMC9482650", "about": "“Quantitative fragmentomics allow affinity mapping of interactomes” (Nature Communications, 2022)", "binders": {"B1": {"name": "FKBP4, Q02790 (peptide)", "chain": "GSQSQVETEA"}, "B2": {"name": "EXOC4, Q96A65 (peptide)", "chain": "ATKDKKITTV"}}}
{"biological_target": "T1, RAPGEF6, Q8TEU7", "T1 sequence (Q8TEU7 525-625, limits assumed, looked up)": "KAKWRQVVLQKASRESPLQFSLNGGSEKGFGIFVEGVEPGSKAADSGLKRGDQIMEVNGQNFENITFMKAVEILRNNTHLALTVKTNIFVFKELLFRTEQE", "assay": "holdup assay", "set-up": "key: below the threshold = too weak to quantify, mostly under pKd 3.1 to 4", "settings": "plain residues with an end cap or a label only (N-terminal biotin on a linker: ado-ado)"}
{"binder": "B1", "pKd": "below the threshold"}
{"binder": "B2", "pKd": "below the threshold"}
{"biological_target": "NHERF4_1, Q86UT5-2", "sequence (Q86UT5 other isoform, or with tags, fused parts or gaps)": "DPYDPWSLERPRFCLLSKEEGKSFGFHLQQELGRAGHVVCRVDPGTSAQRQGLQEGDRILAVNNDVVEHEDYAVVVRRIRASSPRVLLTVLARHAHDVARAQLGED", "assay": "holdup assay", "set-up": "key: below the threshold = too weak to quantify, mostly under pKd 3.1 to 4", "settings": "plain residues with an end cap or a label only (N-terminal biotin on a linker: ado-ado)"}
{"binder": "B1", "pKd": 3.97}
{"binder": "B2", "pKd": 3.64}
{"biological_target": "T2, MPDZ_5, O75970", "T2 sequence (O75970 695-796, limits assumed, looked up)": "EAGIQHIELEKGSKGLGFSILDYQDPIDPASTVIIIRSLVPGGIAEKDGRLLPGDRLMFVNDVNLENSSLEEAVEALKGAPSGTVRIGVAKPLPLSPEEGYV", "assay": "holdup assay", "set-up": "key: below the threshold = too weak to quantify, mostly under pKd 3.1 to 4", "settings": "plain residues with an end cap or a label only (N-terminal biotin on a linker: ado-ado)"}
{"binder": "B1", "pKd": "below the threshold"}
{"binder": "B2", "pKd": "below the threshold"}
{"biological_target": "T3, MPP6, Q9NZW5", "T3 sequence (Q9NZW5 125-219, limits assumed, looked up)": "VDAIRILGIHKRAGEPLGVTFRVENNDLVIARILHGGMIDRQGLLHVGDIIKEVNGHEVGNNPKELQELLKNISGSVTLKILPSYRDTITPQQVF", "assay": "holdup assay", "set-up": "key: below the threshold = too weak to quantify, mostly under pKd 3.1 to 4", "settings": "plain residues with an end cap or a label only (N-terminal biotin on a linker: ado-ado)"}
{"binder": "B1", "pKd": "below the threshold"}
{"binder": "B2", "pKd": "below the threshold"}
{"biological_target": "DLG4_3, P78352", "sequence (P78352 306-403)": "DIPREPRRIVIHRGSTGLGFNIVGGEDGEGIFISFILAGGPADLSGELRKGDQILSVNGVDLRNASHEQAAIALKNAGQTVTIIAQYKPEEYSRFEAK", "assay": "holdup assay", "set-up": "key: below the threshold = too weak to quantify, mostly under pKd 3.1 to 4", "settings": "plain residues with an end cap or a label only (N-terminal biotin on a linker: ado-ado)"}
{"binder": "B1", "pKd": "below the threshold"}
{"binder": "B2", "pKd": 4.5}
{"biological_target": "T4, LRRC7, Q96NW7", "T4 sequence (Q96NW7 1440-1537, limits assumed, looked up)": "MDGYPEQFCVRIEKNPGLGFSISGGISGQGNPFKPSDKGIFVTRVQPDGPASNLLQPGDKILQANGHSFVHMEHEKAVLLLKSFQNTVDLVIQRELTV", "assay": "holdup assay", "set-up": "key: below the threshold = too weak to quantify, mostly under pKd 3.1 to 4", "settings": "plain residues with an end cap or a label only (N-terminal biotin on a linker: ado-ado)"}
{"binder": "B1", "pKd": "below the threshold"}
{"binder": "B2", "pKd": 3.48}
{"biological_target": "PTPN3, P26045", "sequence (P26045 505-587)": "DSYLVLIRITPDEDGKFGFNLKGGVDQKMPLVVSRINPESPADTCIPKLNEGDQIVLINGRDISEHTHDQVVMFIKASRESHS", "assay": "holdup assay", "set-up": "key: below the threshold = too weak to quantify, mostly under pKd 3.1 to 4", "settings": "plain residues with an end cap or a label only (N-terminal biotin on a linker: ado-ado)"}
{"binder": "B1", "pKd": 4.08}
{"binder": "B2", "pKd": 4.31}
{"biological_target": "IL16_1, Q14005", "sequence (Q14005 210-306)": "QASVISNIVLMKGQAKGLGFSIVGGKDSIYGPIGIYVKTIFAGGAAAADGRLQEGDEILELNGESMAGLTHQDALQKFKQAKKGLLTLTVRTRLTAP", "assay": "holdup assay", "set-up": "key: below the threshold = too weak to quantify, mostly under pKd 3.1 to 4", "settings": "plain residues with an end cap or a label only (N-terminal biotin on a linker: ado-ado)"}
{"binder": "B1", "pKd": "below the threshold"}
{"binder": "B2", "pKd": "below the threshold"}
{"biological_target": "CASK, O14936", "sequence (O14936 487-570)": "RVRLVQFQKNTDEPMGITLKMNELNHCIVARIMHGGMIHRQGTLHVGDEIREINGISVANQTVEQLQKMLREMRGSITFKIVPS", "assay": "holdup assay", "set-up": "key: below the threshold = too weak to quantify, mostly under pKd 3.1 to 4", "settings": "plain residues with an end cap or a label only (N-terminal biotin on a linker: ado-ado)"}
{"binder": "B1", "pKd": "below the threshold"}
{"binder": "B2", "pKd": "below the threshold"}
{"biological_target": "Inadl_4, Q8NI35", "sequence (Q8NI35 547-651)": "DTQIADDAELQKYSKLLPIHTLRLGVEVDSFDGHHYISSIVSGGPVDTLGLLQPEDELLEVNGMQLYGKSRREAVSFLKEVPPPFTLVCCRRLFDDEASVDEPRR", "assay": "holdup assay", "set-up": "key: below the threshold = too weak to quantify, mostly under pKd 3.1 to 4", "settings": "plain residues with an end cap or a label only (N-terminal biotin on a linker: ado-ado)"}
{"binder": "B1", "pKd": "below the threshold"}
{"binder": "B2", "pKd": "below the threshold"}
{"biological_target": "HTRA2, O43464", "sequence (O43464 355-458)": "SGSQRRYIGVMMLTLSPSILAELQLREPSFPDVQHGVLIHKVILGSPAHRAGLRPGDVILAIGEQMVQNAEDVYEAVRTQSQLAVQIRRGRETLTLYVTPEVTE", "assay": "holdup assay", "set-up": "key: below the threshold = too weak to quantify, mostly under pKd 3.1 to 4", "settings": "plain residues with an end cap or a label only (N-terminal biotin on a linker: ado-ado)"}
{"binder": "B1", "pKd": "below the threshold"}
{"binder": "B2", "pKd": "below the threshold"}
{"biological_target": "FRMPD2_3, Q68DX3", "sequence (Q68DX3 1073-1166)": "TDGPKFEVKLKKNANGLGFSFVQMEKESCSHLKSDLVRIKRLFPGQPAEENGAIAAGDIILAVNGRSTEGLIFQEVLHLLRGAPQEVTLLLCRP", "assay": "holdup assay", "set-up": "key: below the threshold = too weak to quantify, mostly under pKd 3.1 to 4", "settings": "plain residues with an end cap or a label only (N-terminal biotin on a linker: ado-ado)"}
{"binder": "B1", "pKd": "below the threshold"}
{"binder": "B2", "pKd": "below the threshold"}
{"biological_target": "LDB3, O75112", "sequence (O75112 1-94)": "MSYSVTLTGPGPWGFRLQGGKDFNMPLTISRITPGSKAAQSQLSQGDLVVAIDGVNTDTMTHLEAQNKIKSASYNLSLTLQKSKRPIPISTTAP", "assay": "holdup assay", "set-up": "key: below the threshold = too weak to quantify, mostly under pKd 3.1 to 4", "settings": "plain residues with an end cap or a label only (N-terminal biotin on a linker: ado-ado)"}
{"binder": "B1", "pKd": "below the threshold"}
{"binder": "B2", "pKd": "below the threshold"}
{"biological_target": "T5, MPDZ_10, O75970", "T5 sequence (O75970 1624-1722, limits assumed, looked up)": "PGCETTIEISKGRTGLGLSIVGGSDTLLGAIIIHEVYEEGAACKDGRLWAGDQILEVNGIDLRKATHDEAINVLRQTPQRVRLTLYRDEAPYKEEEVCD", "assay": "holdup assay", "set-up": "key: below the threshold = too weak to quantify, mostly under pKd 3.1 to 4", "settings": "plain residues with an end cap or a label only (N-terminal biotin on a linker: ado-ado)"}
{"binder": "B1", "pKd": "below the threshold"}
{"binder": "B2", "pKd": 3.95}
{"biological_target": "PDZRN4_1, Q6ZMN7", "sequence (Q6ZMN7 213-318)": "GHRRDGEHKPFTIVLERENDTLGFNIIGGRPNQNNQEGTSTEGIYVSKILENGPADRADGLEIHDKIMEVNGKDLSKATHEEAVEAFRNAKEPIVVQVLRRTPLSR", "assay": "holdup assay", "set-up": "key: below the threshold = too weak to quantify, mostly under pKd 3.1 to 4", "settings": "plain residues with an end cap or a label only (N-terminal biotin on a linker: ado-ado)"}
{"binder": "B1", "pKd": "below the threshold"}
{"binder": "B2", "pKd": 3.82}
{"biological_target": "GRIP2_6, Q9C0E4", "sequence (Q9C0E4 648-740)": "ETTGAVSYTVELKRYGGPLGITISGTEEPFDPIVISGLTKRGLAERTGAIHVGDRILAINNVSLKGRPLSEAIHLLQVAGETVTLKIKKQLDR", "assay": "holdup assay", "set-up": "key: below the threshold = too weak to quantify, mostly under pKd 3.1 to 4", "settings": "plain residues with an end cap or a label only (N-terminal biotin on a linker: ado-ado)"}
{"binder": "B1", "pKd": "below the threshold"}
{"binder": "B2", "pKd": "below the threshold"}
{"biological_target": "T6, DFNB31_2, Q9P202", "T6 sequence (Q9P202 274-371, limits assumed, looked up)": "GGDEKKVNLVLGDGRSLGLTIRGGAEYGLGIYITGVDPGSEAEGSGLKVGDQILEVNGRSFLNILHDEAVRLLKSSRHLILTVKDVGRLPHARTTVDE", "assay": "holdup assay", "set-up": "key: below the threshold = too weak to quantify, mostly under pKd 3.1 to 4", "settings": "plain residues with an end cap or a label only (N-terminal biotin on a linker: ado-ado)"}
{"binder": "B1", "pKd": "below the threshold"}
{"binder": "B2", "pKd": "below the threshold"}
{"biological_target": "T7, MPP7, Q5T2T1", "T7 sequence (Q5T2T1 134-230, limits assumed, looked up)": "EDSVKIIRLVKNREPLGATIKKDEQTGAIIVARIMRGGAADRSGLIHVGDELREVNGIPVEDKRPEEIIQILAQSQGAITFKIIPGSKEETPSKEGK", "assay": "holdup assay", "set-up": "key: below the threshold = too weak to quantify, mostly under pKd 3.1 to 4", "settings": "plain residues with an end cap or a label only (N-terminal biotin on a linker: ado-ado)"}
{"binder": "B1", "pKd": "below the threshold"}
{"binder": "B2", "pKd": "below the threshold"}
{"biological_target": "T8, GRIP1_2, Q9Y3R0", "T8 sequence (Q9Y3R0 145-248, limits assumed, looked up)": "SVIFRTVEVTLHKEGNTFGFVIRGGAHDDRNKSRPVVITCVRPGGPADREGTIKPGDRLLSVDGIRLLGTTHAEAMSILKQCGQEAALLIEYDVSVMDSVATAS", "assay": "holdup assay", "set-up": "key: below the threshold = too weak to quantify, mostly under pKd 3.1 to 4", "settings": "plain residues with an end cap or a label only (N-terminal biotin on a linker: ado-ado)"}
{"binder": "B1", "pKd": "below the threshold"}
{"binder": "B2", "pKd": "below the threshold"}
{"biological_target": "FRMPD4, Q14CM0", "sequence (Q14CM0 67-160)": "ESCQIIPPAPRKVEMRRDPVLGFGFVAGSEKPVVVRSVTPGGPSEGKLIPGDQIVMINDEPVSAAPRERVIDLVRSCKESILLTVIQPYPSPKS", "assay": "holdup assay", "set-up": "key: below the threshold = too weak to quantify, mostly under pKd 3.1 to 4", "settings": "plain residues with an end cap or a label only (N-terminal biotin on a linker: ado-ado)"}
{"binder": "B1", "pKd": "below the threshold"}
{"binder": "B2", "pKd": 3.55}
{"biological_target": "MAGI3_2, Q5TCQ9", "sequence (Q5TCQ9 398-503)": "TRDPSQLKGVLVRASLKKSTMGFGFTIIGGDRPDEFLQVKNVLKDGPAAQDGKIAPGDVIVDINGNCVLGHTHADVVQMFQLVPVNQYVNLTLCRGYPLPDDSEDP", "assay": "holdup assay", "set-up": "key: below the threshold = too weak to quantify, mostly under pKd 3.1 to 4", "settings": "plain residues with an end cap or a label only (N-terminal biotin on a linker: ado-ado)"}
{"binder": "B1", "pKd": "below the threshold"}
{"binder": "B2", "pKd": 5.31}
{"biological_target": "GIPC2, Q8TF65", "sequence (Q8TF65 112-203)": "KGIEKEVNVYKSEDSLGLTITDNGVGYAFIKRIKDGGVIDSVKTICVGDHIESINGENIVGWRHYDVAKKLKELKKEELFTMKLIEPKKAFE", "assay": "holdup assay", "set-up": "key: below the threshold = too weak to quantify, mostly under pKd 3.1 to 4", "settings": "plain residues with an end cap or a label only (N-terminal biotin on a linker: ado-ado)"}
{"binder": "B1", "pKd": 3.79}
{"binder": "B2", "pKd": "below the threshold"}
{"biological_target": "MAGI2_5, Q86UL8", "sequence (Q86UL8 915-1017)": "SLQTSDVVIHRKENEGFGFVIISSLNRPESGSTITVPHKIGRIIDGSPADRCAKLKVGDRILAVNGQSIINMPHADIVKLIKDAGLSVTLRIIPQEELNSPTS", "assay": "holdup assay", "set-up": "key: below the threshold = too weak to quantify, mostly under pKd 3.1 to 4", "settings": "plain residues with an end cap or a label only (N-terminal biotin on a linker: ado-ado)"}
{"binder": "B1", "pKd": "below the threshold"}
{"binder": "B2", "pKd": 3.63}
{"biological_target": "T9, GRIP1_7, Q9Y3R0", "T9 sequence (Q9Y3R0 999-1096, limits assumed, looked up)": "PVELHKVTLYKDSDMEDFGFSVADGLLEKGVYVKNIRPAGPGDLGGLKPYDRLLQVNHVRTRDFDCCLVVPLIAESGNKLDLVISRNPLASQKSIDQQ", "assay": "holdup assay", "set-up": "key: below the threshold = too weak to quantify, mostly under pKd 3.1 to 4", "settings": "plain residues with an end cap or a label only (N-terminal biotin on a linker: ado-ado)"}
{"binder": "B1", "pKd": "below the threshold"}
{"binder": "B2", "pKd": 3.53}
{"biological_target": "T10, RADIL, Q96JH8", "T10 sequence (Q96JH8 971-1071, limits assumed, looked up)": "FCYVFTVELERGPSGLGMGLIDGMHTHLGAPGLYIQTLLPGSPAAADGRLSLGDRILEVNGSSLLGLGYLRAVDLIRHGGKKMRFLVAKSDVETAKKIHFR", "assay": "holdup assay", "set-up": "key: below the threshold = too weak to quantify, mostly under pKd 3.1 to 4", "settings": "plain residues with an end cap or a label only (N-terminal biotin on a linker: ado-ado)"}
{"binder": "B1", "pKd": "below the threshold"}
{"binder": "B2", "pKd": 4.14}
{"biological_target": "MAGI2_3, Q86UL8", "sequence (Q86UL8 600-682)": "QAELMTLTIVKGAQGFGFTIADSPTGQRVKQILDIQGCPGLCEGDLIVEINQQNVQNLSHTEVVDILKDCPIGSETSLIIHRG", "assay": "holdup assay", "set-up": "key: below the threshold = too weak to quantify, mostly under pKd 3.1 to 4", "settings": "plain residues with an end cap or a label only (N-terminal biotin on a linker: ado-ado)"}
{"binder": "B1", "pKd": "below the threshold"}
{"binder": "B2", "pKd": 3.57}
{"biological_target": "Inadl_2, Q8NI35", "sequence (Q8NI35 238-335)": "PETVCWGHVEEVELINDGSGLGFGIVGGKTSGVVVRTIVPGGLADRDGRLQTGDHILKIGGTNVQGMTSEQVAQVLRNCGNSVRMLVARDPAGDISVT", "assay": "holdup assay", "set-up": "key: below the threshold = too weak to quantify, mostly under pKd 3.1 to 4", "settings": "plain residues with an end cap or a label only (N-terminal biotin on a linker: ado-ado)"}
{"binder": "B1", "pKd": "below the threshold"}
{"binder": "B2", "pKd": 3.51}
{"biological_target": "MAST1, Q9Y2H9", "sequence (Q9Y2H9 962-1065)": "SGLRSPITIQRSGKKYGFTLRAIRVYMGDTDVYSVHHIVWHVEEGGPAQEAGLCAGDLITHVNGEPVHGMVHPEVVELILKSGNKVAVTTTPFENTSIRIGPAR", "assay": "holdup assay", "set-up": "key: below the threshold = too weak to quantify, mostly under pKd 3.1 to 4", "settings": "plain residues with an end cap or a label only (N-terminal biotin on a linker: ado-ado)"}
{"binder": "B1", "pKd": 3.96}
{"binder": "B2", "pKd": "below the threshold"}
